Non-standard residues stand in square brackets, D forms with d. No end group written: not given here. pT = C[C@@H](OP(=O)(O)O)[C@H](N)C(=O)O; pS = N[C@@H](COP(=O)(O)O)C(=O)O
How the values were obtained:
[1] = biological target: T1, FITC-labeled SARS-CoV-2 N pS197 phosphopeptide WSSRNpSTPGSS (SARS-CoV-2, also: FITC label, position not given here); test: fluorescence polarisation
T1 peptide: WSSRN[pS]TPGSS

[2] = biological target: T2, FITC-labeled SARS-CoV-2 N pT205 phosphopeptide WSSRGpTSPARM (SARS-CoV-2, also: FITC label, position not given here); test: fluorescence polarisation
T2 peptide: WSSRG[pT]SPARM

[3] = biological target: T3, 14-3-3σ (1-231 aa) (159KKE161→159AAA161, Clu1) (human, UniProt P31947 1-231, 159KKE161 → 159AAA161); test: crystal structure
T3 sequence: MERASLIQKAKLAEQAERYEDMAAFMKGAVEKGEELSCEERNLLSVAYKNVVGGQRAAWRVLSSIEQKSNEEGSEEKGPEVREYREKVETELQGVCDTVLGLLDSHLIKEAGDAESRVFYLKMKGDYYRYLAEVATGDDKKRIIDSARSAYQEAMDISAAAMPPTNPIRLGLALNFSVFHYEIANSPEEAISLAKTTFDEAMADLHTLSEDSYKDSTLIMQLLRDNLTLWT

[4] = biological target: T4, 14-3-3σ (1-231 aa) (75EEK77→75AAA77, Clu3) (human, UniProt P31947 1-231, 75EEK77 → 75AAA77); test: crystal structure
T4 sequence: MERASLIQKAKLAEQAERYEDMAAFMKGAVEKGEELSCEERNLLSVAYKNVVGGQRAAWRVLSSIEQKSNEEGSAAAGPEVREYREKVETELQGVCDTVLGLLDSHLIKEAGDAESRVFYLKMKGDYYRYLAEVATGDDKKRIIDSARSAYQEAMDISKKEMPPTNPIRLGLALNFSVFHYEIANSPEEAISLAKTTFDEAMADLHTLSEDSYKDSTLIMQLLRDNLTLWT

B1: MBP-tagged full-length human 14-3-3 sigma (σ) (natural protein)
chain: MERASLIQKAKLAEQAERYEDMAAFMKGAVEKGEELSCEERNLLSVAYKNVVGGQRAAWRVLSSIEQKSNEEGSEEKGPEVREYREKVETELQGVCDTVLGLLDSHLIKEAGDAESRVFYLKMKGDYYRYLAEVATGDDKKRIIDSARSAYQEAMDISKKEMPPTNPIRLGLALNFSVFHYEIANSPEEAISLAKTTFDEAMADLHTLSEDSYKDSTLIMQLLRDNLTLWTADNAGEEGGEAPQEPQS
KD ratio to the 14-3-3γ/pT205 pair [1]: ~10 fold
fold weaker affinity than of 14-3-3σ for the pT205 peptide [1]: ~3 fold

B2: MBP-tagged full-length human 14-3-3 gamma (γ) (natural protein)
chain: MVDREQLVQKARLAEQAERYDDMAAAMKNVTELNEPLSNEERNLLSVAYKNVVGARRSSWRVISSIEQKTSADGNEKKIEMVRAYREKIEKELEAVCQDVLSLLDNYLIKNCSETQYESKVFYLKMKGDYYRYLAEVATGEKRATVVESSEKAYSEAHEISKEHMQPTHPIRLGLALNYSVFYYEIQNAPEQACHLAKTAFDDAIAELDTLNEDSYKDSTLIMQLLRDNLTLWTSDQQDDDGGEGNN
KD ratio pS197 peptide / pT205 peptide (selectivity coefficient) [2]: ~7 fold

B3: Unlabeled SARS-CoV-2 N pT205 phosphopeptide WSSRGpTSPARM (peptide)
peptide: WSSRG[pT]SPARM
binding result [3]: binds

B4: Unlabeled SARS-CoV-2 N pS197 phosphopeptide WSSRNpSTPGSS (peptide)
peptide: WSSRN[pS]TPGSS
binding result [4]: binds

Reference: article PMC9683861 (Journal of Molecular Biology, 2022)
